Here are results for 5 molecules from patent US20200347143A1 (GLENMARK PHARMACEUTICALS S A, published 2020).

Assay [1] addresses T1, human OX40 on cells (human, UniProt P43489 29-277).
T1 construct: whole, on cells; also called OX40 on HPB-ALL cells
T1 sequence (looked up): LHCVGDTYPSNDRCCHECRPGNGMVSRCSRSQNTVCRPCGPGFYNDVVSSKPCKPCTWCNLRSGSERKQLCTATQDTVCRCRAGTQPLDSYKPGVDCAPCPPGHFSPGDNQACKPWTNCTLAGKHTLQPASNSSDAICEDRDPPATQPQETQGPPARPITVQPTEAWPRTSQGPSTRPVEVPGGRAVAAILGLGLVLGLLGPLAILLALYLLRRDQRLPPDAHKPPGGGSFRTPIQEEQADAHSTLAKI
The assay can be described thus: flow cytometry on HPB-ALL cells, 10 µg/ml antibody. The protocol: HPB-ALL cells (DSMZ, Braunschweig, Germany, Cat. No: ACC483) were used as a human OX40 positive cell line for FACS staining. HPB-ALL were maintained in RPMI 1640 supplemented with 10% FCS and 100 U/ml Penicillin and 100 μg/ml streptomycin. 4×10e5 HPB-ALL cells in FACS buffer (PBS supplemented with 1% BSA and 0.1% sodium azide) were incubated for 45 min on ice with the anti-OX40 antibody of interest kept at a concentration of 10 μg/ml An irrelevant human IgG1 was used as an isotype control; the cells were incubated with a 1/200 dilution of anti-Human Fc-PE (EBioscience, Vienna, Austria) for 45 min on ice. Cells were then washed again and resuspended in 200 μl FACS buffer. The relative mean fluorescence of each sample was measured on a FACSCalibur instrument (BD Biosciences, Allschwil, Switzerland).
A first set of 16 humanized antibodies of human gamma one isotype were prepared. These first humanized candidates were assessed for transient expression in HEK293E cells and binding to HB-ALL cell by flow cytometry (Table 7).
In general terms: Flow cytometry measures light scatter and fluorescence of single cells or particles in a stream.

Assay [2] addresses T2, recombinant human OX40-his protein (human, UniProt P43489 29-214).
T2 construct: Secreted via the native signal peptide, which lies within residues 1-214; also called Human OX40R-His; histidine tagged human OX40 receptor extracellular domain
T2 sequence: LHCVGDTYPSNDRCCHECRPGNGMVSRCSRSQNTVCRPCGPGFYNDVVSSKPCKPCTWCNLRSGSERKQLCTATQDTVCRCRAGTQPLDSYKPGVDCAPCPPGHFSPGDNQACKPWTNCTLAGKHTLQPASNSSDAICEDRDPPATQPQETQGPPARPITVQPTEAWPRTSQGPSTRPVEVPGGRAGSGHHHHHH
The assay can be described thus: SPR, antibody captured on Protein A, OX40-his injected. The method, then: (§1) Measurements were performed on CM5 sensor chips (Biacore 2000, GE Healthcare Europe GmbH, Cat. No: BR-1000-14) individually coupled with Protein A (Sigma, Buchs, Switzerland, Cat. No: P7837) using a commercial amine coupling kit (GE Healthcare Europe GmbH, Cat. No: BR-1000-50). 200-600 RUs of humanized antibody were captured. Dilution series of OX40-his were injected at a flow rate of 10 μl/min in HBS-EP buffer (GE Healthcare Europe GmbH, Cat. No: BR1001-88). After each binding event, the surface was regenerated with 10 μl of glycine buffer pH 1.5. Experimental data were processed using a 1:1 Langmuir model with local Rmax. The dissociation time was about 7 min. Measurements were performed in duplicates or triplicates and included zero-concentration samples for referencing. Both Chit and residual values were used to evaluate the quality of a fit between the experimental data and individual binding models.
Humanized antibody candidates were then assayed for their binding affinity by SPR and Fab thermal stability by DSC.
A general note: In SPR one partner is held on a chip, and binding of the other changes the refractive index at the surface.

The target of assay [3] is T2, recombinant human OX40-his protein. Put plainly: SPR (BIAcore 2000), antibody captured on Protein A, OX40-his injected. The protocol: SPR analysis was used to measure the association and dissociation rate constants for the binding kinetics of the anti-OX40 antibodies. The binding kinetics were measured on a BIAcore 2000 (BIAcore-GE Healthcare Europe GmbH, Glattbrugg, Switzerland) at room temperature and analyzed with the BiaEvaluation software (v4.1, GE Healthcare Europe GmbH).
as §1

Assay [4] shares this target. The assay can be described thus: SPR, antibody captured on Protein A, OX40-his injected. The protocol:
as §1
Finally, Surface Plasmon Resonance analyses were applied to control antibody variant affinities as described earlier.
The source holds these as a separate data set.

For the next assay, the target named is rat OX40-Fc (rat). Put plainly: ELISA on coated rat OX40-Fc. The protocol: (§2) These constructs were expressed in HEK293-EBNA1 cells and purified using protein A. Then, human and rat OX40-Fc were tested in ELISA and Biacore to determine antibody cross-reactivity. For the ELISA, 96 well-microtiter plates (Costar USA, distributor VWR AG, Nyon, Switzerland) were coated with 100 μl of recombinant human or rat OX40-Fc at 2 μg/ml in PBS. Plates were incubated overnight at 4° C. and were then blocked with PBS 2% BSA (Bovine Serum Albumine, PAA Laboratories, Pasching, Austria) at room temperature (RT) for one hour. The blocking solution was removed and the purified antibodies were added at 10 μg/ml in PBS 2% BSA. The plates were incubated at RT for 1 hour, then washed 5 times with PBS 0.01% Tween-20 (Sigma-Aldrich Chemie GmbH, Buchs, Switzerland). […] Plates were incubated for 1 hour at RT, washed 5 times with PBS 0.01% Tween-20 and the TMB substrate (Bio-rad Laboratories AG, Reinach, Switzerland) was added to the plates and the reaction stopped after 5 minutes by adding H₂SO₄. Absorbance was then read at 450 nm by a microplate reader (Biotek, USA; distributor: WITTEC AG, Littau, Switzerland). Biacore experiments were specifically conducted with Hexa-hzG3V9 and Hexa-hz1D10v1 which are dAb-Fc fusion proteins. […] Binding of human and cyno OX40-Fc molecules was determined by successively injecting these proteins on the 4 flow-paths (flow-path 1 and 3 being used as references) at a concentration of 200 nM and a flow rate of 30 uL/min for 240 seconds. Regeneration between the two injections was done using 3M MgCl2, at 30 uL/min for 60 seconds. Using these two approaches, human/rat OX40 binding was assessed (table 16).
Chain of rat OX40-Fc (rat) (chain, as listed by the source limits assumed): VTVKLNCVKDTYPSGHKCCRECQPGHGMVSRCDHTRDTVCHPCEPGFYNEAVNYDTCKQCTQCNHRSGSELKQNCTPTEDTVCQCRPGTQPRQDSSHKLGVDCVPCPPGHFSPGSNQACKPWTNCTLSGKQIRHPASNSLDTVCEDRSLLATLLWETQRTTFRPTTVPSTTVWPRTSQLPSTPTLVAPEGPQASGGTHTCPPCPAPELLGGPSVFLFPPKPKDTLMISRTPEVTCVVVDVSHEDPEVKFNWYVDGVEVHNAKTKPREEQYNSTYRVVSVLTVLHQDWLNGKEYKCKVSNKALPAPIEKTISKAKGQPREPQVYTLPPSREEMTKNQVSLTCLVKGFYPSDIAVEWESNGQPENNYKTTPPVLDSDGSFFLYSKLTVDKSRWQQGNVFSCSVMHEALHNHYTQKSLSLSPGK
A general note: In an ELISA, binding on a coated surface is turned into a signal by an enzyme label.

In the next assay the target is T3, human OX40-Fc (human).
T3 construct: also called recombinant human OX40-Fc; human OX40 (HHHH)
Put plainly: ELISA on coated human OX40-Fc, antibody 10 µg/ml. The method, then:
as §2

For assay [5], the target named is T4, recombinant DR3 molecule (R&D) (UniProt Q93038 25-199, limits assumed).
T4 sequence (looked up): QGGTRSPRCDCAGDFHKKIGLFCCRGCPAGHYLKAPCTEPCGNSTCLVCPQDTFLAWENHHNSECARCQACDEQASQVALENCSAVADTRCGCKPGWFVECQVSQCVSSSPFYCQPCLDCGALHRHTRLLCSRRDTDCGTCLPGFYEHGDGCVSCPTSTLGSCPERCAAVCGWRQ
Put plainly: direct ELISA on coated recombinant DR3, detection streptavidin-HRP, absorbance 450 nm [panel DR3]. The method, then:
(§3) FIG. 13. A dose-response of various antibodies was incubated on various receptors, members of Tumor Necrosis Factor Receptor family, then detected with Streptavidin coupled with Horseradish Peroxidase enzyme. […] Each data point is the mean of duplicate values except for control curves that were performed in simplicate.
(§4) The experiment was conducted following the same protocol than previously described. […] These molecules were all coated at 2 μg/ml in PBS overnight at 4° C.

Assay [6] concerns the target T5, recombinant DR6 molecule (R&D) (UniProt O75509 42-349, limits assumed).
T5 sequence (looked up): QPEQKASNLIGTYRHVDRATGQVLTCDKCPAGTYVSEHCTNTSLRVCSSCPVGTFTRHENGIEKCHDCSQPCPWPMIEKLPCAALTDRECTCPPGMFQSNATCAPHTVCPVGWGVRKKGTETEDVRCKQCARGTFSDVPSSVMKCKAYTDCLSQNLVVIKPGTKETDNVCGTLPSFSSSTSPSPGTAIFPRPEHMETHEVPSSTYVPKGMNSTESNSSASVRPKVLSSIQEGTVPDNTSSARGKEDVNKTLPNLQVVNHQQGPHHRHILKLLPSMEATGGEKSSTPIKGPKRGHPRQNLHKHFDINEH
The assay can be described thus: direct ELISA on coated recombinant DR6, detection streptavidin-HRP, absorbance 450 nm [panel DR6]. The method, then: as §3, §4

In assay [7] the target is recombinant CD40 molecule (R&D) (UniProt P25942 21-193). The assay can be described thus: direct ELISA on coated recombinant CD40, detection streptavidin-HRP, absorbance 450 nm [panel CD40]. The method, then:
as §3, §4

Assay [8] concerns the target T6, recombinant GITR molecule (R&D) (UniProt Q9Y5U5 26-161).
T6 sequence (looked up): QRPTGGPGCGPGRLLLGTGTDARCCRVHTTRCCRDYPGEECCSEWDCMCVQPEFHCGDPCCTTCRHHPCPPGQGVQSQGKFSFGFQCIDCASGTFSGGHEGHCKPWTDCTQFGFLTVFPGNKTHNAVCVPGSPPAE
Put plainly: direct ELISA on coated recombinant GITR, detection streptavidin-HRP, absorbance 450 nm [panel GITR]. The protocol:
as §3, §4

Assay [9] addresses T1, human OX40 on cells. Put plainly: flow cytometry on JURKAT-NFkB-OX40 cells, detection anti-human Fc PE, geometric mean of fluorescence intensity.
Assay [10] concerns the target T1, human OX40 on cells. The assay can be described thus: cell-based or functional assay.
The target of assay [11] is T1, human OX40 on cells. Put plainly: cell-based or functional assay. The source holds these as a separate data set.
For assay [12], the target named is T1, human OX40 on cells. Put plainly: cell-based or functional assay. This is another data set of the same source.

Chain of recombinant CD40 molecule (R&D) (P25942 21-193 limits assumed): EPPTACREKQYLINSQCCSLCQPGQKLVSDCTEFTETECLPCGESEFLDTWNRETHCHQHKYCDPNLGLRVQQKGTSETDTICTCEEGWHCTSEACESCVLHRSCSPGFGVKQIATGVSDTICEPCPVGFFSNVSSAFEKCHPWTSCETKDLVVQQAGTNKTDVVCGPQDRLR

B1: Chimeric 7H11 IgG1 (antibody, V domains shown)
VH: QVQLQQSGPELVKPGASVKMSCKASGYTFTRYYIHWMNQRPGQGLEWIGWIYPGDGSTKYNEKFKGKTTLTADTSSSTAYMLLSSLTSEDSAIYFCAREYGNYDYWGQGTTVTVSS
VL: DIVMTQSPSSLSVSAGEKVTMSCKSSQSLLNSGNQKNYLAWYQQKPGQPPKLLIYGASTRESGVPDRFTGSGSGTDFTLTISSVQAEDLAVYYCQNDHSYPYTFGGGTKLEIK
notes: Mouse variable domains on human IgG1 heavy constant domains and human kappa constant domain; also called 7H11 (chimeric); chimeric 7H11 antibody
One may read the Kd as the concentration at which binding is half-saturated. One may read the koff as a measure of how fast the partners let go of each other. For orientation: kon means a measure of how fast the partners come together. B1 gave an MFI with human OX40 on cells [1] of 132. In addition, the Kd in assay [2] is 50 nM. Also, in [3], the Kd turned out to be 50 nM, the koff was 0.00066 s⁻¹ and the kon is 11600 M⁻¹ s⁻¹.

B2: Humanized 7H11-VH2 N58K-D54S (antibody, human IgG1, kappa, V domains shown)
VH: QVQLVQSGAEVKKPGASVKVSCKASGYTFTRYYMHWVRQAPGQGLEWMGWIYPGSGSTKYAQKFQGRVTMTRDTSISTAYMELSRLRSDDTAVYYCAREYGNYDYWGQGTLVTVSS
VL: DIVMTQSPDSLAVSLGERATINCKSSQSLLNSGNQKNYLAWYQQKPGQPPKLLIYGASTRESGVPDRFSGSGSGTDFTLTISSLQAEDVAVYYCQNDHSYPYTFGQGTKLEIKR
notes: human IgG1, kappa; also called 7H11 VH D54S
Take B2: the Kd in assay [4] turned out to be 49 nM.

B3: Humanized 7H11-VH2 N58K-D54T (antibody, human IgG1, kappa, V domains shown)
VH: QVQLVQSGAEVKKPGASVKVSCKASGYTFTRYYMHWVRQAPGQGLEWMGWIYPGTGSTKYAQKFQGRVTMTRDTSISTAYMELSRLRSDDTAVYYCAREYGNYDYWGQGTLVTVSS
VL: DIVMTQSPDSLAVSLGERATINCKSSQSLLNSGNQKNYLAWYQQKPGQPPKLLIYGASTRESGVPDRFSGSGSGTDFTLTISSLQAEDVAVYYCQNDHSYPYTFGQGTKLEIKR
notes: human IgG1, kappa; also called 7H11 VH D54T
As to B3, in [4], the Kd came to 32 nM.

B4: 2H6 IgG1 (antibody)
heavy: not shown
light: DIQLTQSPSSLSASVGDRVTITCRASESVDNYGISFMNWFQQKPGKAPKLLIYAASNQKSGVPSRFSGSGSGTDFTLTISSLQPEDFATYFCQQSKEVPLTFGQGTKVEIKRTVAAPSVFIFPPSDEQLKSGTASVVCLLNNFYPREAKVQWKVDNALQSGNSQESVTEQDSKDSTYSLSSTLTLSKADYEKHKVYACEVTHQGLSSPVTKSFNRGEC
Usually EC50 (read off the curve) stands for the concentration that produces a half-maximal response. A higher EC50 (read off the curve) goes with a need for much substance. Take B4: the binding result with rat OX40-Fc is “no binding (tested: 10 µg/ml)”; with human OX40-Fc, “binds”; in assay [5], “no binding (tested: 10 µg/ml)”; in assay [6] it was “no binding (tested: 10 µg/ml)”; in assay [7], “no binding (tested: 10 µg/ml)”; in assay [8], “no binding (tested: 10 µg/ml)”. Moreover, in the assay with human OX40 on cells [9], the “EC50 (read off the curve)” value was approximately 0.2 µg/mL.

B5: recombinant human OX40L-Fc protein (Fc fusion, not shown: a dimerising Fc or GST; small tags and cut ends)
chain: QVSHRYPRIQSIKVQFTEYKKEKGFILTSQKEDEIMKVQNNSVIINCDGFYLISLKGYFSQEVNISLHYQKDEEPLFQLKKVRSVNSLMVASLTYKDKVYLNVTTDNTSLDDFHVNGGELILIHQNPGEFCVL
Turning to B5, the “donors reaching a 1.2 fold induction of CD4+CD25+ cells compared to SEB only” value with human OX40 on cells [10] came out at 67%. Moreover, the “Mean (fold increase proliferation vs control), MLR assay” value with human OX40 on cells [11] amounted to 1.54 fold. In the assay with human OX40 on cells [12], the “% donor responder (>2), SEB assay, IL-2 release” value was found to be 83% and the “Mean, normalized IL-2 release, SEB assay” value was 4.26.
